Measured values as given in article PMC5807055, “Atomic Structure of Type VI Contractile Sheath from Pseudomonas aeruginosa” (Structure(London, England:1993), 2018).

B1: P. aeruginosa TssC1 (H1-T6SS sheath protein), produced in E. coli (natural protein)
chain: MAELSTENLAQGQTTTEQTSEFASLLLQEFKPKTERAREAVETAVRTLAEHALEQTSLISNDAIKSIESIIAALDAKLTAQVNLIMHHADFQQLESAWRGLHYLVNNTETDEQLKIRVLNISKPELHKTLKKFKGTTWDQSPIFKKLYEEEYGQFGGEPYGCLVGDYYFDQSPPDVELLGEMAKISAAMHAPFISAASPTVMGMGSWQELSNPRDLTKIFTTPEYAGWRSLRESEDSRYIGLTMPRFLARLPYGAKTDPVEEFAFEEETDGADSSKYAWANSAYAMAVNINRSFKLYGWCSRIRGVESGGEVQGLPAHTFPTDDGGVDMKCPTEIAISDRREAELAKNGFMPLLHKKNTDFAAFIGAQSLQKPAEYDDPDATANANLAARLPYLFATCRFAHYLKCIVRDKIGSFKEKDEMQRWLQDWILNYVDGDPAHSTETTKAQHPLAAAEVVVEEVEGNPGYYNSKFFLRPHYQLEGLTVSLRLVSKLPSAKEA
notes: TssC1 of the H1-T6SS cluster of Pseudomonas aeruginosa; 498 residues in total (461 traced; M1-A37 not traced); also called VipB/IglB homologue; source: E. coli B834(DE3), co-produced with TssB1 from pET28-B1C1, purified as TssB1C1 tubes (size exclusion chromatography)

Tests used:
[1] = molecular target: the molecule itself; test: cryo-EM structure; TssB1C1 sheaths (1 mg/ml) purified from E. coli, vitrified; helical reconstruction in RELION; contracted sheath with 13-fold symmetry, 3.3 Å; SEC buffer 50 mM Tris-HCl pH 9, 250 mM NaCl, 1 mM EDTA, 5 mM DTT
[2] = molecular target: B1; test: as above; conditions: both partners purified

B1
binding result [1]: binds

B2: P. aeruginosa TssB1 (H1-T6SS sheath protein), produced in E. coli (natural protein)
chain: MGSTTSSQKFIARNRAPRVQIEYDVELYGAEKKVQLPFVMGVMADLAGKPAEPQAAVADRKFLEIDVDNFDARLKAMKPRVAFNVPNVLTGEGNLSLDITFESMDDFSPAAVARKVDSLNKLLEARTQLANLLTYMDGKTGAEEMIMKAIKDPALLQALASAPKPKDDEPQA
notes: TssB1 of the H1-T6SS cluster of Pseudomonas aeruginosa; 172 residues in total (132 traced; M1-S3 and M136-A172 not traced); also called VipA/IglA homologue; source: E. coli B834(DE3), co-produced with TssC1 from pET28-B1C1, purified as TssB1C1 tubes (size exclusion chromatography)
binding result [2]: binds
